Results published in PMC4839565, “Evolution of Telomeres in Schizosaccharomyces pombe and Its Possible Relationship to the Diversification of Telomere Binding Proteins”.

T1: Teb1p (6HN-Teb1) (Schizosaccharomyces pombe, UniProt Q10274 2-390)
T1 sequence: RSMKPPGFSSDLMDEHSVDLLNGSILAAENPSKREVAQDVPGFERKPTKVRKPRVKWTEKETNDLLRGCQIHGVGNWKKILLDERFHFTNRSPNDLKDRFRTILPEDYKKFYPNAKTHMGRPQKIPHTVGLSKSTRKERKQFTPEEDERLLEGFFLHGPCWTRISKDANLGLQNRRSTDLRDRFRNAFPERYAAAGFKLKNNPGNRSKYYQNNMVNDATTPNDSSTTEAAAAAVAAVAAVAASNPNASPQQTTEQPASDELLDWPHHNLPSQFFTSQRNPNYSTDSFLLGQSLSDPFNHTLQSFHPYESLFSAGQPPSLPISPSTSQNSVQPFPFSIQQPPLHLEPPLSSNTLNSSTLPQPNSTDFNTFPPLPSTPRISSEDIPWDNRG

T2: Taz1p (6HN-Taz1) (Schizosaccharomyces pombe, UniProt P79005 2-663)
T2 sequence: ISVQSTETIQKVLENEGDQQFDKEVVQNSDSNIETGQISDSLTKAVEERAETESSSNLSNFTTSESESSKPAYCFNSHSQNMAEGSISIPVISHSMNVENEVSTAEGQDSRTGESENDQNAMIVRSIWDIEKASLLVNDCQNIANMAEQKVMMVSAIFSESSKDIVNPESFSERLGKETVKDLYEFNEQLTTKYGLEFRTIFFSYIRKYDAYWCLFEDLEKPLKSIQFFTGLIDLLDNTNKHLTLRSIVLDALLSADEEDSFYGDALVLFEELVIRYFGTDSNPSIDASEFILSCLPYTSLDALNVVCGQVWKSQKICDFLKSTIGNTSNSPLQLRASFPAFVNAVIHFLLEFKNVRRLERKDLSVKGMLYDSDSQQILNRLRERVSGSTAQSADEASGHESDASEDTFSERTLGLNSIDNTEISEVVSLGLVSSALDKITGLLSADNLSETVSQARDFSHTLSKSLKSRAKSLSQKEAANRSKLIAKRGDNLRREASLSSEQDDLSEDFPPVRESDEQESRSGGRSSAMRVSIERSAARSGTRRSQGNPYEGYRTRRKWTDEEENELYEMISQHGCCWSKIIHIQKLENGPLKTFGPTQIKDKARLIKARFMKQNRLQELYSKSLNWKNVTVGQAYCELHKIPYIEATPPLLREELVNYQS

B1: HisBoxFlankPart (dsDNA)
DNA 1: AGGGTTAGGGTTACAGC
DNA 2: GCTGTAACCCTAACCCT
B2: HisBox (dsDNA)
DNA 1: AGGGTTAGGGTTGTGAT
DNA 2: ATCACAACCCTAACCCT
B3: HisBoxMut (dsDNA)
DNA 1: AGGGTGTGAGTTGTGAT
DNA 2: ATCACAACTCACACCCT
B4: SpTEL (dsDNA)
DNA 1: TTACAGGGGGTTACAGGG
DNA 2: CCCTGTAACCCCCTGTAA
B5: HsTEL (dsDNA)
DNA 1: GTTAGGGTTAGGGTTAG
DNA 2: CTAACCCTAACCCTAAC

Assays:
Teb1p (6HN-Teb1) [1] = target: T1, Teb1p (6HN-Teb1); experiment: EMSA; no DTT; almost complete restoration; HNE: 20 mM HEPES-NaOH pH 7.5, 1 mM EDTA, 100 mM NaCl (Teb1); HNED = HNE + 0.1 mM DTT (Taz1). FA: 2 nM DNA, 25 C (Teb1/SpTEL 37 C). EMSA: 15 nM DNA, 0.05-4.5 uM; settings: protein: recombinant; tags: N-terminal 6HN; C-terminal GST removed with PreScission protease (residual site residues); label: 5'-32P on strand A; blunt
Taz1p (6HN-Taz1) = target: T2, Taz1p (6HN-Taz1); experiment: fluorescence anisotropy; HNED, 0.1 mM DTT, 25 C; HNE: 20 mM HEPES-NaOH pH 7.5, 1 mM EDTA, 100 mM NaCl (Teb1); HNED = HNE + 0.1 mM DTT (Taz1). FA: 2 nM DNA, 25 C (Teb1/SpTEL 37 C). EMSA: 15 nM DNA, 0.05-4.5 uM; settings: protein: recombinant; tags: N-terminal 6HN; chain copies: 2; EMSA: 5'-32P on strand A; blunt
Teb1p (6HN-Teb1) [2] = target: T1, Teb1p (6HN-Teb1); experiment: fluorescence anisotropy; HNE, no DTT, 25 C; HNE: 20 mM HEPES-NaOH pH 7.5, 1 mM EDTA, 100 mM NaCl (Teb1); HNED = HNE + 0.1 mM DTT (Taz1). FA: 2 nM DNA, 25 C (Teb1/SpTEL 37 C). EMSA: 15 nM DNA, 0.05-4.5 uM; settings: protein: recombinant; tags: N-terminal 6HN; C-terminal GST removed with PreScission protease (residual site residues); EMSA: 5'-32P on strand A; blunt
Teb1p (6HN-Teb1) [3] = target: T1, Teb1p (6HN-Teb1); experiment: EMSA; no DTT; HNE: 20 mM HEPES-NaOH pH 7.5, 1 mM EDTA, 100 mM NaCl (Teb1); HNED = HNE + 0.1 mM DTT (Taz1). FA: 2 nM DNA, 25 C (Teb1/SpTEL 37 C). EMSA: 15 nM DNA, 0.05-4.5 uM; settings: protein: recombinant; tags: N-terminal 6HN; C-terminal GST removed with PreScission protease (residual site residues); label: 5'-32P on strand A; blunt
Teb1p (6HN-Teb1) [4] = target: T1, Teb1p (6HN-Teb1); experiment: fluorescence anisotropy; HNE, no DTT, 37 C; HNE: 20 mM HEPES-NaOH pH 7.5, 1 mM EDTA, 100 mM NaCl (Teb1); HNED = HNE + 0.1 mM DTT (Taz1). FA: 2 nM DNA, 25 C (Teb1/SpTEL 37 C). EMSA: 15 nM DNA, 0.05-4.5 uM; settings: protein: recombinant; tags: N-terminal 6HN; C-terminal GST removed with PreScission protease (residual site residues); EMSA: 5'-32P on strand A; blunt

Row | Binder | Kd (Taz1p (6HN-Taz1)) [nM] | Kd (Teb1p (6HN-Teb1) [2]) [nM] | also measured
1 | B1 | – | – | binding result (Teb1p (6HN-Teb1) [1]): binds
2 | B2 | 380 ± 50 | 53 ± 6 | –
3 | B3 | – | – | binding result (Teb1p (6HN-Teb1) [3]): no binding
4 | B4 | 115 ± 9 | – | Kd (Teb1p (6HN-Teb1) [4]): 380 ± 30 nM
5 | B5 | 54 ± 5 | 31 ± 5 | –
